Data reported in PMC6070508, “Structural basis for selective inhibition of immunoglobulin E-receptor interactions by an anti-IgE antibody” (Scientific Reports, 2018).
Where “and” joins values, the source holds several entries; their conditions need not be identical. Equal entries are not always repeated.

Tests used:
8D6 Fab = molecular target: T1, 8D6 Fab; assay: SPR; Biacore T200; 8D6 Fab amine-coupled to a CM5 chip; His-tagged IgE-Fc injected at 100 nM to 190 pM (2-fold dilutions) in HBS-P (10 mM HEPES pH 7.4, 150 mM NaCl, 0.005% surfactant P20), 30 uL/min; constants from low and intermediate concentrations; settings: both partners purified
T1 construct: In SPR it was amine-coupled to a CM5 chip or injected as analyte; also called recombinant 8D6 Fab; anti-IgE antibody Fab (8D6)
T1 sequence (heavy, as listed by the source, chain 1 of 2): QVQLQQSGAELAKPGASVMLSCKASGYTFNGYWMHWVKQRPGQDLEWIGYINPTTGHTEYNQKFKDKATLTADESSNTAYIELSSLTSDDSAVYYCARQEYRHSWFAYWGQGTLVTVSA
T1 sequence (light, as listed by the source, chain 2 of 2): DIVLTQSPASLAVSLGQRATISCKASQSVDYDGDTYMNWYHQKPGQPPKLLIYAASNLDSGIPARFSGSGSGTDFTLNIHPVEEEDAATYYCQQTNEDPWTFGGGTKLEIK

derCD23 = molecular target: T2, derCD23 (human); assay: SPR; N-terminally His-tagged IgE-Fc captured with an anti-His-tag antibody (Biacore His Capture Kit); derCD23 injected at 10 to 0.156 uM; HBS-P with 5 mM CaCl2, 25 °C; settings: both partners purified
T2 construct: human CD23 (FcεRII), soluble monomeric fragment called derCD23; also called soluble, monomeric CD23 construct; soluble fragment of CD23
T2 sequence (P06734 whole entry, looked up): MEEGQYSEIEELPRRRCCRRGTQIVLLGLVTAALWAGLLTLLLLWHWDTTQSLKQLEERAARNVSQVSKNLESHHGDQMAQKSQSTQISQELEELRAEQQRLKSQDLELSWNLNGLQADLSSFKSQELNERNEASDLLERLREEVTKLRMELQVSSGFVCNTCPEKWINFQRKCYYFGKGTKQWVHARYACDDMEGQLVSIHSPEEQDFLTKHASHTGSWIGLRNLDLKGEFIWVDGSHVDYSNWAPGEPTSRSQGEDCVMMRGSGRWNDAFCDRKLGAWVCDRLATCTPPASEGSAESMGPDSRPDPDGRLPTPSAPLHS

Kd (8D6 Fab): ~0.02 nM | koff (8D6 Fab): 8e-05 s⁻¹ | kon (8D6 Fab): 5e+06 M⁻¹ s⁻¹ | Kd (derCD23): 1800 nM and 1700 nM and 1600 nM
B1: His-tagged IgE-Fc (domain or fragment)
chain: VASRDFTPPTVKILQSSCDGGGHFPPTIQLLCLVSGYTPGTIQITWLEDGQVMDVDLSTASTTQEGELASTQSELTLSQKHWLSDRTYTCQVTYQGHTFEDSTKKCADSNPRGVSAYLSRPSPFDLFIRKSPTITCLVVDLAPSKGTVQLTWSRASGKPVNHSTRKEEKQRNGTLTVTSTLPVGTRDWIEGETYQCRVTHPHLPRALMRSTTKTSGPRAAPEVYAFATPEWPGSRDKRTLACLIQNFMPEDISVQWLHNEVQLPDARHSTTQPRKTKGSGFFVFSRLEVTRAEWEQKDEFICRAVHEAASPSQTVQRAVSVNPGK
modifications: disulfide-linked homodimer; N-glycosylated at Asn394 (high-mannose); N-terminal 6xHis/Xpress tag omitted; C225A, N265Q and N371Q taken as already in the deposited entity; C-terminal end taken from …
